Test results reported in IntAct's records for PubMed 20126385.

B1: Adenomatous polyposis coli protein-related protein 1 (Caenorhabditis elegans), Q21227-1 (parent)
chain: MSSSSSDENETTIHRTGSNTGGSGIYSQPRAGSSKRTSNVRHDVSDVDDEEEHYARFREDTAIEVDDAITVLLSSLHFEHKRDIVPTDEDDNKLRELHEKIFALITSESDVNRKRRLKKALPASNCVREQVYYLRRKPSTPPASYYHRLNAALHTIVKESFGEEYRKVATVLGLVEALAEVLILEVHTFGINETNPGEHRNIRKLIANALTNLTYGQIHSKRRLCSYDGFIRCVVRIVIESPNITQVYAGLIRNLSWNADSGMSEALQPTVHALSIAAVHAHTHRFDVTATLSALWNLAGHSVENKRTICDTPNCLKVLASLLSPDARFTSLVDSATGILKYVSQYLANTSTHLELRSLLITRMLTLLKSASFTCVTNTLGAIANLIVKDPHMQQMIRQDMAAVQQLNVLRNSNRDDIRTAVKSVLNTLNQPCSHRYGDMSHSVGGGATGMQMLSEPQLQMQTSHHAYHGTASPRLLSLRATRASPGKYIQPQAQQQLIQTPQVDQRSSSLPRHFAVQRNGFVMAQSYNQQMDQHQQQQMIYQLQQQQQIMFQTEDQAQMEHHQQIMYLQQQQQQFHQIQQQQQMQKAQEADPVPPTDDDLDIPTSTVMGTRSNSERSLGSMNPGSVMTNWNSSLDTAANSSRALSPVSYNDIPASPTMCAQVFNLPKSTESEHHQLTSQQQNTTHYSSGSANTMTRSDGATTVPMDNIITPTYAILNPILVHEQTPNGTVPRKTSEELDSPDDVLPGPSLEEEEGDYAIIGGAAQKTDDELLTRSIQSEMPTSSSTPKMKVSPRLNGFFSPTQKTTSSPAWSHPDTSPIPKSSSHRTQPNRRQDASDADRLLMESIMSEMPKSRIISPRLAGTQQYLEPEPERRSHSKNEEADRRDAFTASHEPSDHNGIDVARGSDWSPQQQLHRMESLESQASSEDSFGLTAEEPNSSTSGAAANTMRFDDEIDASLPMDCVDDDDYDYTYDHFEDYEDEEDPDATQFDDGVDAQLTIDCSMISSGSGSSQRNETTTTSRDSKALATSTPKGSASSLPGVRQATRVSTNGKSRLPVPKTNGSLVDKNPKPIIASRRPRLPPKPTLLKDKHYPEEDSIENQTRDDTIYVNAPVVEAEQERIYMNALKQQKNIEQSPSIGNGSPIAKSAIVTPYNYQKPPFTGRNNGEMSNEKSVTPNPKQMLVTIV
partner: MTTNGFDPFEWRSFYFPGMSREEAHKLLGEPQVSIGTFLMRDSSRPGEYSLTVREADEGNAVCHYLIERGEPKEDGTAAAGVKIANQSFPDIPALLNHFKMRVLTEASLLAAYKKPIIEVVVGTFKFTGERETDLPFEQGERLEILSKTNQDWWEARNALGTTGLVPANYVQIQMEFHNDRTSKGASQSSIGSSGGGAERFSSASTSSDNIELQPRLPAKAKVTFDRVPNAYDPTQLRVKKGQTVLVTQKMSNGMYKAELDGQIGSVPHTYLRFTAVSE

Variants of: B1
Details: with ced2_caeel ced-2, Q9NHC3

Variant | effect of a mutation on the interaction
Y489A | decreasing interaction
